B1: SEQ ID NO 28 (designed binder, not shown: small tags and cut ends; large carriers)
chain: QVSVQPNFQQDKFLGRWFLAGMASNSSWMREKFAALSVAKFVVAPATDGGLNTTTTLLRKNQCETFTRLLQPAGSLGSYSSRSPHLGSTVSGSVVETDYDQYALLYEQGSKGPGEDGRKAWLGSRTQTPRAELKEKFTAFSKAQGFTEDTIVFLPQTDKCMTEQ
B2: SEQ ID NO 29 (designed binder, not shown: small tags and cut ends; large carriers)
chain: QVSVQPNFQQDKFLGRWFVAGVASNSSWMREKVAALSGAKVVVAPATDGGLNYTETWLRKNQCETWTGLLQPAGSLGSYSQRSPHGGSTNSLSVVETDYDQYALLYVQGSKGPGEDPRVAVLWSRTQTPRAELKEKFTAFSKAQGFTEDTIVFLPQTDKCMTEQ
B3: SEQ ID NO 32 (designed binder, not shown: small tags and cut ends; large carriers)
chain: QDSTQNLIPAPPLISVPLQPGFWTERFQGRWFSVGMAGNAVQKERQSRFTMGSCIMELQEDNSYNLTFIGVRGQGCRYRILTWVPSSRPGQFTLGNIHSYPQIQSADVQVADTDYDQFAMVFWQTTSENKQYFAVELWGRTKGLSDELKERFVSFAKSLGLKDNNIVFSVPTDQCIDN
B4: SEQ ID NO 23 (designed binder, not shown: small tags and cut ends; large carriers)
chain: QVSVQPNFQQDKFLGRWFLAGAASNSSWLREKNAALSYAKLVVAPATDGGLNSTVTRLRKNQCETETRLLQPAGSLGSYSWRSPHLGSTLSLSVVETDYDQYALVYAQGSKGPGEDVRGAELLSRTQTPRAELKEKFTAFSKAQGFTEDTIVFLPQTDKCMTEQ
B5: SEQ ID NO 44 (designed binder, not shown: small tags and cut ends; large carriers)
chain: TVPDRSEIAGKWYVVALASNTEFFLREKDRIKTAMARISFLGEDELKVSLARPAPNGCHKAEWTFKKTSDDGEVYTSFLAKFKVEVLDTDYKSYAVIYATPVKDGRTRHEMLLYSRSPEVSPAATAIFRKLAGERNYTDEMVAMLPRQEECTVDEV
B6: SEQ ID NO 30 (designed binder, not shown: small tags and cut ends; large carriers)
chain: QDSTQNLIPAPPLISVPLQPGFWTERFQGRWFNVGIAGNAVQKERQSRFTMLSLISELQEDNSYNWTLISVRGQGCRYRILTWVPSSRPGQFTLGNIHSYPQIQSLDVQVADTDYDQFAMVFAQGTSENKQYFEVILMGRTKGLSDELKERFVSFAKSLGLKDNNIVFSVPTDQCIDN
B7: SEQ ID NO 43 (designed binder, not shown: small tags and cut ends; large carriers)
chain: TVPDRSEIAGKWYVVALASNTEFVLREKDWLKLAMARISFLGEDELKVSMTTPGPNGCTKWERTLKKTSDDGEVYSSPRAKEKVEVLDTDYKSYAVIYATAVKDGRTLHEMWLYSRSPEVSPAATAIFRKLAGERNYTDEMVAMLPRQEECTVDEV
B8: SEQ ID NO 47 (designed binder, not shown: small tags and cut ends; large carriers)
chain: TVPDRSEIAGKWYVVALASNTEFFLREKDNFKMAMARISFLGEDELKVSEAVPTPNGCFKAEFTGKKTSDDGEVYWSQTAKYKVEVLDTDYKSYAVIYATNVKDGRTVHAMNLYSRSPEVSPAATAIFRKLAGERNYTDEMVAMLPRQEECTVDEV
B9: SEQ ID NO 37 (designed binder, not shown: small tags and cut ends; large carriers)
chain: QDSTQNLIPAPPLISVPLQPGFWTERFQGRWFLVGLAGNAVQKERQSRRTMSSLILELQEDNSYNETWINVRGQGCRYRIGTVVPSSRPGQFTLGNIHSYPQIQSLDVQVADTDYDQFAMVFTQFTSENKQYFYVRLMGRTKGLSDELKERFVSFAKSLGLKDNNIVFSVPTDQCIDN
B10: SEQ ID NO 38 (designed binder, not shown: small tags and cut ends; large carriers)
chain: QVSVQPNFQQDKFLGRWFPAGFASNSSWDREKPAALSLAKMVVAPATDGGLNWTETYLRKNQCETTTHLLQPAGSLGSYSYRSPHFGSTRSLSVVETDYDQYALFYSQGSKGPGEDHRGAWLLSRTQTPRAELKEKFTAFSKAQGFTEDTIVFLPQTDKCMTEQ
B11: SEQ ID NO 26 (designed binder, not shown: small tags and cut ends; large carriers)
chain: QVSVQPNFQQDKFLGRWFAAGYASNSSWRRERSAALSMAKVVVAPATDGGLNWTETILRKNQCETATNLLQPAGSLGSYSIRSPHAGSTSSMSVVETDYDQYALLYAQGSKGPGEDFRLAILLSRTQTPRAELKEKFTAFSKAQGFTEDTIVFLPQTDKCMTEQ
B12: SEQ ID NO 22 (designed binder, not shown: small tags and cut ends; large carriers)
chain: QVSVQPNFQQDKFLGRWFTAGLASNSSWLREKFAALSHAKTVVAPATDGGLNLTVTVLRKNQCETSTLLLQPAGSLGSYSRRSPHVGSTGSVSVVETDYDQYALIYDQGSKGPGEDWRIAELVSRTQTPRAELKEKFTAFSKAQGFTEDTIVFLPQTDKCMTEQ
B13: SEQ ID NO 25 (designed binder, not shown: small tags and cut ends; large carriers)
chain: QVSVQPNFQQDKFLGRWFIAGLASNSSWVREKSAALSQAKVVVAPATDGGLNVTVTVLRKNQCETYTVLLQPAGSLGSYSSRSPHFGSTVSLSVVETDYDQYALWYAQGSKGPGEDMRHAELWSRTQTPRAELKEKFTAFSKAQGFTEDTIVFLPQTDKCMTEQ
B14: SEQ ID NO 46 (designed binder, not shown: small tags and cut ends; large carriers)
chain: TVPDRSEIAGKWYVVALASNTEFHLREKDNLKVAMARISFLGEDELKVSEAVPTPNGCMKHESTWKKTSDDGEVYRSRKAKQKVEVLDTDYKSYAVIYATRVKDGRTHHWMLLYSRSPEVSPAATAIFRKLAGERNYTDEMVAMLPRQEECTVDEV
B15: SEQ ID NO 39 (designed binder, not shown: small tags and cut ends; large carriers)
chain: QVSVQPNFQQDKFLGRWFLAGLASNSSWAREKIAALSDAKFVVAPATDGGLNGTVTVLRKNQCETATGLLQPAGSLGSYSWRSPHDGSTLSLSVVETDYDQYALVYEQGSKGPGEDLRIAALWSRTQTPRAELKEKFTAFSKAQGFTEDTIVFLPQTDKCMTEQ
B16: SEQ ID NO 24 (designed binder, not shown: small tags and cut ends; large carriers)
chain: QVSVQPNFQQDKFLGRWFYAGLASNSSWLREKCAALSSAKAVVAPATDGGLNVTETWLRKNQCETGTELLQPAGSLGSYSFRSPHRGSTLSLSVVETDYDQYALLYRQGSKGPGEDERRALLMSRTQTPRAELKEKFTAFSKAQGFTEDTIVFLPQTDKCMTEQ
B17: SEQ ID NO 40 (designed binder, not shown: small tags and cut ends; large carriers)
chain: QVSVQPNFQQDKFLGRWFYAGLASNSSWIREKYAALSLAKSVVAPATDGGLNWTETSLRKNQCETGTVLLQPAGSLGSYSLRSPHHGSTISVSVVETDYDQYALVYRQGSKGPGEDSRRAILMSRTQTPRAELTEKFTAFSKAQGFTEDTIVFLPQTDKCMTEQ
B18: SEQ ID NO 36 (designed binder, not shown: small tags and cut ends; large carriers)
chain: QDSTQNLIPAPPLISVPLQPGFWTERFQGRWFIVGAAGNAVQKERQSRVTMGSVIWELQEDNSYNLTFISVRGQGCRYWIETWVPSSRPGQFTLGNIHSYPQIQSADVQVADTDYDQFAMVFVQYTSENKQYFMVRLLGRTKGLSDELKERFVSFAKSLGLKDNNIVFSVPTDQCIDN
B19: SEQ ID NO 41 (designed binder, not shown: small tags and cut ends; large carriers)
chain: QVSVQPNFQQDKFLGRWFYAGMASNSSWLREKSAALSAAKFVVAPATDGGLNFTETFLRKNQCETTTILLQPAGSLGSYSVRSPHVGSTVSISVVETDYDQYALFYVQGSKGPGEDNRMALLGSRTQTPRAELKEKFTAFSKAQGFTEDTIVFLPQTDKCMTEQ

These binders were tested against M48-modified F NTAA target peptides (M48-F-P2-peptide) (assay: Gini coefficient of P1 selectivity from multiplex encoding heatmap).

**Q.** B1 was tested. Which P1 score did it give?
**A.** 0.392

**Q.** B2 was tested. Which P1 score did it give?
**A.** 0.189

What follows are binders tested against M44-modified F NTAA target peptides (M44-F-P2-peptide) in the same assay as above.

**Q.** With B3 as the binder, how does the P1 score read?
**A.** 0.173

**Q.** For B4, which P1 score is on record?
**A.** 0.387

**Q.** B5 was tested. Which P1 score did it give?
**A.** 0.241

**Q.** How did the P1 score turn out when B6 was run?
**A.** 0.433

**Q.** How did the P1 score turn out when B7 was run?
**A.** 0.408

These binders were tested against M44-modified A NTAA target peptides (M44-A-P2-peptide) in the same assay as above.

**Q.** B8 was tested. Which P1 score did it give?
**A.** 0.173

**Q.** For B9, which P1 score is on record?
**A.** 0.319

The binders below were run against M44-modified L NTAA target peptides (M44-L-P2-peptide) in the same assay as above.

**Q.** How did the P1 score turn out when B10 was run?
**A.** 0.403

**Q.** B11 was tested. Which P1 score did it give?
**A.** 0.501

**Q.** B12 was tested. Which P1 score did it give?
**A.** 0.418

**Q.** How did the P1 score turn out when B13 was run?
**A.** 0.478

**Q.** B14 was tested. Which P1 score did it give?
**A.** 0.225

**Q.** For B15, which P1 score is on record?
**A.** 0.286

**Q.** Which P1 score does the source give for B16 here?
**A.** 0.452

These binders were tested against M44-modified I NTAA target peptides (M44-I-P2-peptide) in the same assay as above.

**Q.** B17 was tested. Which P1 score did it give?
**A.** 0.357

**Q.** Which P1 score does the source give for B18 here?
**A.** 0.326

**Q.** B19 was tested. Which P1 score did it give?
**A.** 0.323

The binders below were run against M48-modified F NTAA target peptides (M48-F-P2-peptide) (assay: Gini coefficient of P2 tolerance from multiplex encoding heatmap).

**Q.** Which P2 score does the source give for B1 here?
**A.** 0.318

**Q.** For B2, which P2 score is on record?
**A.** 0.387

These binders were tested against M44-modified F NTAA target peptides (M44-F-P2-peptide) in the same assay as above.

**Q.** For B3, which P2 score is on record?
**A.** 0.379

**Q.** For B4, which P2 score is on record?
**A.** 0.456

**Q.** With B5 as the binder, how does the P2 score read?
**A.** 0.485

**Q.** For B6, which P2 score is on record?
**A.** 0.378

**Q.** How did the P2 score turn out when B7 was run?
**A.** 0.359

What follows are binders tested against M44-modified A NTAA target peptides (M44-A-P2-peptide) in the same assay as above.

**Q.** For B8, which P2 score is on record?
**A.** 0.466

**Q.** How did the P2 score turn out when B9 was run?
**A.** 0.195

The binders below were run against M44-modified L NTAA target peptides (M44-L-P2-peptide) in the same assay as above.

**Q.** Which P2 score does the source give for B10 here?
**A.** 0.251

**Q.** Which P2 score does the source give for B11 here?
**A.** 0.498

**Q.** For B12, which P2 score is on record?
**A.** 0.431

**Q.** How did the P2 score turn out when B13 was run?
**A.** 0.543

**Q.** With B14 as the binder, how does the P2 score read?
**A.** 0.289

**Q.** With B15 as the binder, how does the P2 score read?
**A.** 0.426

**Q.** For B16, which P2 score is on record?
**A.** 0.375

These binders were tested against M44-modified I NTAA target peptides (M44-I-P2-peptide) in the same assay as above.

**Q.** Which P2 score does the source give for B17 here?
**A.** 0.144

**Q.** Which P2 score does the source give for B18 here?
**A.** 0.197

**Q.** B19 was tested. Which P2 score did it give?
**A.** 0.217

From patent publication US20230220589A1
